Assay results published in paper PMC8497620, “Structure and inhibition of Cryptococcus neoformans sterylglucosidase to develop antifungal agents” (Nature Communications, 2021).

Experiments:
C. neoformans Sgl1 [1] = target: T1, C. neoformans Sgl1 (Cryptococcus neoformans var. grubii, UniProt J9W473); assay: Sgl1 inhibition with res-glp substrate (HTS, single-compound dose-response); assay type: biochemical; settings: res-glp as substrate (100 µM), primary screen; read-out: IC50 against Sgl1
Protocol: Resorufin-3β-D-glucopyranoside (res-glp, Sigma-Aldrich) enzyme kinetic assays were performed according to methods described by Urban et al.[16] with modifications. Reaction buffer contained 50 mM citric acid, 176 mM K2HPO4, pH 6, 0.01% Tween-20, and 10 mM sodium taurocholate. The reactions were carried out in black 96-well plates using 20 ng of enzyme with 100 μM res-glp substrate. In all, 10 μL/well of res-glp substrate was added to each well and the reaction was initiated by adding 20 μL enzyme (20 ng). After incubation at 37 °C for 30–40 min, the fluorescence was read at an excitation of 570 (±10) nm and an emission of 610 (±10) nm on a VersaMax™ Microplate Reader from Molecular Devices. A standard curve was prepared with serial dilutions of the free fluorophore, resorufin, in the same volume of assay buffer.
A ChemBridge DIVERSet-CL library (San Diego, CA) containing 50,000 compounds was screened to identify small molecules that inhibit C. neoformans Sgl1. The library was prepared in a 96-well plate format containing a cocktail of 10 compounds per well at 1 mM each in 100% DMSO. The cocktail plates were first diluted to 100 μM each (1:10 dilution in Dulbecco’s phosphate-buffered saline, DPBS) resulting in 10% DMSO. In order to screen the compound cocktails at […] in 1% DMSO in a final reaction volume of 30 μL an aliquot of 3 μL was added to 17 μL of buffer containing 20 ng of enzyme and the reaction was started adding 10 μL of 100 μM res-glp. A negative control without enzyme and positive controls with and without DMSO were prepared. The plates were incubated at 37 °C for 40 min.
The Z′-factor was used for the assessment of the efficiency of the HTS assay for each individual plate. Values greater than 0.5 has been considered as an indicator of an excellent screening assay quality.

C. neoformans Sgl1 [2] = target: T1, C. neoformans Sgl1; assay: H/D exchange mass spectrometry mapping of disordered regions; settings: H/D exchange MS of C. neoformans Sgl1; per peptide (amino acids Start-End, Sequence); Fig S2a
Protocol: HDX-MS reactions were performed in a similar manner as is outlined in previous publications. HDX reactions were conducted in a final reaction volume of 50 µL with a final Sgl1 concentration of 0.6 µM (30 pmol). Exchange was carried out in triplicate for a single time point (3 s at 4 °C). Hydrogen deuterium exchange was initiated by the addition of 48 µL of D2O buffer (100 mM NaCl (20 mM pH 6.0 Bis-Tris), 90.5% D2O (V/V) to 1 µL of protein and 1 µL of H2O. Exchange was terminated by the addition of ice-cold acidic quench buffer, resulting in a final concentration of 0.6 M guanidine-HCl and 0.9% FA post quench. Samples were immediately frozen in liquid nitrogen and stored at −80 °C. Fully deuterated samples were generated by first denaturing the protein in 2 M guanidine for 5 min at 20 °C. Following denaturing, 48 µL of D2O buffer was added to the denatured protein and allowed to incubate for 5 min at 20 °C before quenching. Samples were flash frozen and stored at −80 °C until injection onto the ultra-performance liquid chromatography (UPLC) system for proteolytic cleavage, peptide separation, and injection onto a QTOF for mass analysis.
Protein sample was rapidly thawed and injected onto a UPLC system kept in a cold box at 2 °C. The protein was run over two immobilized pepsin columns (Applied Biosystems; Porosyme 2-3131-00) and the peptides were collected onto a VanGuard Precolumn trap (Waters). The trap was eluted in line with an ACQUITY 1.7 μm particle, 100 × 1 mm^2 C18 UPLC column (Waters), using a gradient of 5–36% B (Buffer A 0.1% formic acid, Buffer B 100% acetonitrile) over 16 min. MS experiments were performed on an Impact QTOF (Bruker) and peptide identification was done by running tandem MS (MS/MS) experiments run in data-dependent acquisition mode. The resulting MS/MS dataset was analyzed using PEAKS7 (PEAKS) and a false discovery rate was set at 1% using a database of purified proteins and known contaminants. HDExaminer Software (Sierra Analytics) was used to automatically calculate the level of deuterium incorporation into each peptide. All peptides were manually inspected for correct charge state and presence of overlapping peptides. Deuteration levels were calculated using the centroid of the experimental isotope clusters, with correction for back exchange generated using the fully deuterated sample. The mass spectrometry proteomics data have been deposited to the ProteomeXchange Consortium via the PRIDE partner repository[31] with the dataset identifier PXD024981.

T1 sequence (J9W473 entry or part of it): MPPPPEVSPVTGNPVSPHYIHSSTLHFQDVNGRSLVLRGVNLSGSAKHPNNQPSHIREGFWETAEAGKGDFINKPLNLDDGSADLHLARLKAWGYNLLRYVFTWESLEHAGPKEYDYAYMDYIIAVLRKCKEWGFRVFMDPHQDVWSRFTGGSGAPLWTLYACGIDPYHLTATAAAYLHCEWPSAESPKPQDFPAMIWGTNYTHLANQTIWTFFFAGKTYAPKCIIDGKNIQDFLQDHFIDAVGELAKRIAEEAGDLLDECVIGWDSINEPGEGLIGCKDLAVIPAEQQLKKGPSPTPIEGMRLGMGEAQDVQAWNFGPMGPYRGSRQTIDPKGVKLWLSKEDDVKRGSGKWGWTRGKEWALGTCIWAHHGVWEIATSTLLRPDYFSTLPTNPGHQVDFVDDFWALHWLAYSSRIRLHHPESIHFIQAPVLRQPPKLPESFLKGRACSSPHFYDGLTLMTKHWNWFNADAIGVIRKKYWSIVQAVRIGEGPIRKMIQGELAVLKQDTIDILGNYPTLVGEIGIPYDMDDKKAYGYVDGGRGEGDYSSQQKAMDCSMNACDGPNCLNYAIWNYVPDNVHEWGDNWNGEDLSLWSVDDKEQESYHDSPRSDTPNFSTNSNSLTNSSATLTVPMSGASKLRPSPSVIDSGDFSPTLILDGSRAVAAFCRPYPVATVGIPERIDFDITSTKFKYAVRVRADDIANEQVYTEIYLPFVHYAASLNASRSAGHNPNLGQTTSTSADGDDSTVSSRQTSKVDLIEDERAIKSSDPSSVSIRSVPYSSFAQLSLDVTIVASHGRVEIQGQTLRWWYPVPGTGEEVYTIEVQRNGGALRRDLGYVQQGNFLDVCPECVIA

| IC50 (C. neoformans Sgl1 [1]) [µM] | Compound | % Deuterium incorporation, Average (C. neoformans Sgl1 [2]) [%] |
| --- | --- | --- |
| 2 | COc1cc(CNCc2cc(C)cc3c(C)c(C)[nH]c23)cc2c1OCO2 [Hit 12] |  |
| 4 | CN(C)CCN(Cc1ccsc1)Cc1ccc2nonc2c1 [Hit 11] |  |
| 4 | O=C(c1ccc(-c2ccccc2)c(F)c1)C1CCCN(C2CCSCC2)C1 (centres unmarked) [Hit 2] |  |
|  | YLHCEWPSAESPKPQDF | 52.9 |
|  | WNFGPMGPYRGSRQTIDPKGVKL | 28.6 |
|  | RGVNLSGSAKHPNNQPSH | 44.0 |
|  | STNSNSLTNSSAT | 101.5 |
|  | AVRVRADDIANE | 16.0 |
|  | HCEWPSAESPKPQDFPAM | 59.9 |
|  | WLSKEDDVKRGSGKWGWTRGKEWALGTCI | 17.4 |
|  | SRSAGHNPNLGQTTSTSADGDDSTVSSRQTSKVDL | 101.7 |
|  | WNFGPMGPYRGSRQTIDPKG | 43.4 |
|  | LSGSAKHPNNQPSHIREGF | 54.3 |
|  | RGVNLSGSAKHPNNQPSHIREGF | 44.7 |
|  | VGEIGIPYDMDDKKAYGYVDGGRGEGDYSSQQKAMD | 19.4 |
|  | DVTIVASHGRVEIQGQTLRWWYPVPGTGEEV | 19.0 |
|  | LVLRGVNLSGSAKHPNNQPSHIREGF | 33.7 |
|  | LAVIPAEQQLKKGPSPTPIEG | 28.2 |
|  | SSRIRLHHPESIHF | 4.1 |
|  | INKPLNL | 46.8 |
|  | VQAWNFGPMGPYRGSRQTIDPKGVKL | 24.9 |
|  | DITSTKFKYAVRVRA | 3.2 |
|  | WNFGPMGPYRGSRQ | 53.6 |
|  | SIRSVPYSSF | 96.6 |
|  | LRWWYPVPGTGE | 31.2 |
|  | LVLRGVNL | 7.5 |

| IC50 (C. neoformans Sgl1 [1]) [µM] | Compound | % Deuterium incorporation, Average (C. neoformans Sgl1 [2]) [%] |
| --- | --- | --- |
|  | VGIPERIDF | 8.3 |
|  | LVLRGVN | 5.8 |
|  | ASKLRPSPSV | 76.0 |
|  | MRLGMGEAQDVQA | 6.8 |
|  | AVLKQDTIDILGNYPTL | 14.1 |
|  | DDKKAYGYVDGGRGEGDYSSQQKAMD | 28.0 |
|  | SINEPGEGL | 13.9 |
|  | PVTGNPVSPHYIHSSTLHF | 30.4 |
|  | NACDGPNCLNY | 17.8 |
|  | STLPTNPGHQVD | 53.3 |
|  | YVQQGNFL | 101.5 |
|  | RVFMDPHQDVWSRF | 4.4 |
|  | IIDGKNIQDFLQDHF | 7.4 |
|  | TVPMSGASKLRPSPSV | 90.4 |
|  | LAVIPAEQQLKKGPSPTPIEGM | 28.2 |
|  | AVIPAEQQL | 59.2 |
|  | CKDLAVIPAEQQLKKGPSPTPIEG | 25.2 |
|  | NACDGPNCLN | 19.4 |
|  | DVQAWNFGPMGPYRGSRQTIDPKGVKL | 26.1 |
|  | WESLEHAGPKEYD | 6.6 |
|  | ASKLRPSPSVIDSGDFSPTLIL | 40.9 |
|  | ILGNYPTL | 27.3 |
|  | WLSKEDDVKRGSGKWGWTRGKE | 27.6 |
|  | IEDERAIKSSDPSS | 101.2 |
|  | FCRPYPVA | 21.1 |
|  | TVPMSGASKLRPSPSVIDSGDFSPTL | 57.8 |

| IC50 (C. neoformans Sgl1 [1]) [µM] | Compound | % Deuterium incorporation, Average (C. neoformans Sgl1 [2]) [%] |
| --- | --- | --- |
|  | STVSSRQTSKVDL | 98.6 |
|  | YVDGGRGEGDY | 69.5 |
|  | RIRLHHPESIHF | 6.5 |
|  | ARLKAWGYNLL | 2.5 |
|  | KGRACSSPHFYDGLTL | 28.7 |
|  | SRSAGHNPNLGQTTSTSADGDD | 102.7 |
|  | VWEIATSTLLRPDYFS | 21.9 |
|  | TVGIPERIDF | 7.3 |
|  | QDVNGRS | 17.0 |
|  | YAIWNYVPDNVHEWGDN | 15.4 |
|  | DVTIVASHGRVEIQGQTL | 21.1 |
|  | AKRIAEE | 1.8 |
|  | FCRPYPVAT | 4.6 |
|  | VIGWDSINEPGEGLIGCKDL | 5.1 |
|  | SADGDDSTVSSRQTSKVDL | 103.2 |
|  | NASRSAGHNPNLGQTTSTSADGDDSTVSSRQTSKVDLIE | 100.2 |
|  | YVDGGRGEGDYSSQQKAMD | 51.4 |
|  | NYVPDNVHEWGDNW | 32.4 |
|  | WLSKEDDVKRGSGKWGWTRGKEWALGTCIWAHHGVWE | 11.7 |
|  | MTKHWNWFNA | 29.9 |
|  | STNSNSLTNSSATL | 102.1 |
|  | IGWDSINEPGEGLIGCKDL | 4.5 |
|  | VTIVASHGRVEIQGQTLRWWYPVPGTGE | 23.1 |
|  | NASRSAGHNPNLGQTTSTSADGDD | 102.3 |
|  | QLKKGPSPTPIEG | 10.2 |
|  | ATLTVPMSGASKLRPSPSVIDSGDFSPTL | 63.6 |

| IC50 (C. neoformans Sgl1 [1]) [µM] | Compound | % Deuterium incorporation, Average (C. neoformans Sgl1 [2]) [%] |
| --- | --- | --- |
|  | YTHLANQTIWTF | 3.6 |
|  | VTIVASHGRVEIQGQTLRWWYPVPGTGEE | 22.0 |
|  | WAHHGVWEI | 2.5 |
|  | NASRSAGHNPNLGQTTSTSADGDDST | 100.5 |
|  | ANQTIWTF | -1.6 |
|  | IKSSDPSS | 106.2 |
|  | STNSNSLTNSSATLTVPMSGASKLRPSPSV | 91.4 |
|  | DAIGVIRKKYWSIVQA | 36.2 |
|  | DVTIVASHGRVEIQGQT | 25.2 |
|  | SLEHAGPKEYDYA | 6.0 |
|  | VNLSGSAKHPNNQPSHIREGF | 45.8 |
|  | RVFMDPHQDVW | 3.4 |
| 4 | CCC(Sc1nc2ccccc2o1)C(=O)N1CCc2[nH]cnc2C1 (centres unmarked) [Hit 8] |  |
|  | IEDERAIKSSDPSSVSIRSVPYSSF | 100.4 |
|  | RWWYPVPGTG | 40.0 |
|  | YAIWNYVPDNVHE | 15.0 |
|  | DERAIKSSDPSS | 103.7 |
|  | IQAPVLRQPPKLPES | 35.7 |
|  | IATSTLLRPDYFSTLPTNPGHQVDF | 31.3 |
|  | DDGSADLHL | 35.8 |
|  | RAIKSSDPSSVS | 104.6 |
|  | RRDLGYV | 59.6 |
|  | RSVPYSSF | 93.7 |
|  | LRWWYPVPGTGEEV | 23.5 |

| Compound | IC50 (C. neoformans Sgl1 [1]) [µM] | % Deuterium incorporation, Average (C. neoformans Sgl1 [2]) [%] |
| --- | --- | --- |
| Cc1cc(NCc2ccc3[nH]c(C)c(C)c3c2)nc(N)n1 [Hit 4] | 4 |  |
| CC(C)Oc1cccc(C(=O)C2CCCN(C3CCSCC3)C2)c1 (centres unmarked) [Hit 3] | 4 |  |
